B1: CypA(55-69) + (67–79) + (49-62), three peptides tested in combination (other)
peptide 1: RIIPGFMCQGGDFTR
peptide 2: FTRHNGTGGKSIY
peptide 3: KGSCFHRIIPGFMC
notes: Cyclophilin A (CypA), residues 55-69; Cyclophilin A (CypA), residues 67-79; Cyclophilin A (CypA), residues 49-62; A mixture of separate peptides; source: synthetic peptides, combined; copies: + +
B2: CypA(121-131) + (99–109) + (83-90), three peptides tested in combination (other)
peptide 1: WLDGKHVVFGK
peptide 2: SMANAGPNTNG
peptide 3: FEDENFIL
notes: Cyclophilin A (CypA), residues 99-109; Cyclophilin A (CypA), residues 83-90; A mixture of separate peptides; source: synthetic peptides, combined; copies: + +
B3: CypA(99-109) + (83–90), two peptides tested in combination (other)
peptide 1: SMANAGPNTNG
peptide 2: FEDENFIL
notes: Cyclophilin A (CypA), residues 99-109; Cyclophilin A (CypA), residues 83-90; A mixture of separate peptides; source: synthetic peptides, combined
B4: CypA(67-79) + (49–62), two peptides tested in combination (other)
peptide 1: FTRHNGTGGKSIY
peptide 2: KGSCFHRIIPGFMC
notes: Cyclophilin A (CypA), residues 67-79; Cyclophilin A (CypA), residues 49-62; A mixture of separate peptides; source: synthetic peptides, combined
B5: CypA(55-69) + (67–79), two peptides tested in combination (other)
peptide 1: RIIPGFMCQGGDFTR
peptide 2: FTRHNGTGGKSIY
notes: Cyclophilin A (CypA), residues 55-69; Cyclophilin A (CypA), residues 67-79; A mixture of separate peptides; source: synthetic peptides, combined
B6: CypA(55-69) + (49–62), two peptides tested in combination (other)
peptide 1: RIIPGFMCQGGDFTR
peptide 2: KGSCFHRIIPGFMC
notes: Cyclophilin A (CypA), residues 55-69; Cyclophilin A (CypA), residues 49-62; A mixture of separate peptides; source: synthetic peptides, combined
B7: CypA(121-131) + (83–90), two peptides tested in combination (other)
peptide 1: WLDGKHVVFGK
peptide 2: FEDENFIL
notes: Cyclophilin A (CypA), residues 83-90; A mixture of separate peptides; source: synthetic peptides, combined
B8: AIF(370-394) synthetic peptide (peptide, UniProt O95831 370-394, looked up)
peptide: QSVGVSSGKLLIKLKDGRKVETDHI
notes: also called AIF peptide; source: synthetic peptide
B9: CypA(55-69) peptide with R69 replaced by alanine (peptide, UniProt P62937 55-69, looked up)
peptide: RIIPGFMCQGGDFTA
notes: Cyclophilin A (CypA), residues 55-69, R69 replaced by alanine; also called CypA(55-69)R69; source: synthetic peptide
B10: CypA(121-131) + (99–109), two peptides tested in combination (other)
peptide 1: WLDGKHVVFGK
peptide 2: SMANAGPNTNG
notes: Cyclophilin A (CypA), residues 99-109; A mixture of separate peptides; source: synthetic peptides, combined

Holding throughout (settings): both partners purified
Experiment [1] addresses T1, Apoptosis Inducing Factor, pro-apoptotic form AIF(Δ1-121) (UniProt O95831 122-613).
T1 construct: also called apoptogenic form of AIF
The experiment can be described thus: EnSpire label-free direct binding assay; direct binding of CypA peptides, CypA or CypA R55A with AIF(370-394) or AIF(Δ1-121); details (who was immobilised) in the Supplementary Information.

The target of experiment [2] is B8. Described as above.
The target of experiment [3] is T2, His-tagged Cyclophilin A (CypA) (UniProt P62937 1-165).
T2 construct: Cyclophilin A (CypA), peptidyl-prolyl isomerase; Uniformly 15N-labelled for the NMR experiments, unlabelled elsewhere; also called CypA wild type; 15N-CypA; source: bacteria, IPTG-induced, purified (His-trap HP, size exclusion chromatography)
T2 sequence (P62937 whole entry): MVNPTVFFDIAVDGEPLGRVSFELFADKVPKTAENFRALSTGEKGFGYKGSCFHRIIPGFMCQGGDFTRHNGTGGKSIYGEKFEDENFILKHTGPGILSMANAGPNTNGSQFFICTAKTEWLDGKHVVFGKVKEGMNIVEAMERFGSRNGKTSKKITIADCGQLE
The experiment can be described thus: ITC; AIF(370-394) 0.7 mM injected (20 x 2 μL) into CypA 5 μM, 25 °C, PBS 1X with 1 mM DTT, pH 7.4; single-site model; triplicate.

Another experiment has as its target T3, CypA R55A mutant (UniProt P62937 1-165, R55A).
T3 construct: Cyclophilin A (CypA) with R55A; the R55A mutant corresponding to His-tagged CypA; The starting construct carried a Myc tag; also called R55A CypA mutant; R55A mutated CypA; source: prepared starting from the construct pCMV6-AC-Myc-CypA^R55A
The experiment can be described thus: EnSpire label-free direct binding assay; direct binding of CypA peptides, CypA or CypA R55A with AIF(370-394) or AIF(Δ1-121); details (who was immobilised) in the Supplementary Information.

Experiment [4] deals with T2, His-tagged Cyclophilin A (CypA). The experiment is described as above.

T1 sequence (O95831 122-613, stated change not applied): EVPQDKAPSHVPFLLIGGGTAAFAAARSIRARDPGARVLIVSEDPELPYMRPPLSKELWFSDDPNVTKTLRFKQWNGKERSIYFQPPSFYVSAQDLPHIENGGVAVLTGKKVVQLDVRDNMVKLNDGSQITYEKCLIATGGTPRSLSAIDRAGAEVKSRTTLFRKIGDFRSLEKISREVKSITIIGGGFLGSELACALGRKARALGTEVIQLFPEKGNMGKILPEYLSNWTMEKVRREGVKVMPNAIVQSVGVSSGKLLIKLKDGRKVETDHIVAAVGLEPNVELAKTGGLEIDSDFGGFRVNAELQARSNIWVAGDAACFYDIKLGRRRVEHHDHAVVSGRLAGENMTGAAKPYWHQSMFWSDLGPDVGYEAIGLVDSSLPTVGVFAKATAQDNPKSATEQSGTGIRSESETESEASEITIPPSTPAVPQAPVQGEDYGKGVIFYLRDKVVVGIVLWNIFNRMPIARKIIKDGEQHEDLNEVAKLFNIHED
T3 sequence (P62937 whole entry R55A): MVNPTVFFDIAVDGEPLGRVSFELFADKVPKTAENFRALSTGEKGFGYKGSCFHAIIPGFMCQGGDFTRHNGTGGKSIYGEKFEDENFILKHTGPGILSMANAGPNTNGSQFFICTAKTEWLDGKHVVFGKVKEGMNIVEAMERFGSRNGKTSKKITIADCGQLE

Take B1: the Kd – broadly, the concentration at which binding is half-saturated – in experiment [1] was 25.2 ± 5 µM; in experiment [2] it was 20.7 ± 6.5 µM.
For B2 the same measures were 38.8 ± 4.6 µM and 268 ± 9.65 µM.
B3 came in with a Kd in experiment [2] of 304 ± 10.8 µM.
As to B4, the Kd worked out at 2.8 ± 0.9 µM in experiment [1] and 3.1 ± 1.3 µM in experiment [2].
As for B5, the Kd in experiment [1] stood at 51.4 ± 12.2 µM; in experiment [2], 34.9 ± 8.1 µM.
The like results for B6 were, in that order, 2.2 ± 0.7 µM and 4.6 ± 1.3 µM.
The like results for B7 were, in that order, 31.3 ± 2.8 µM and 87 ± 5.8 µM.
Turning to B8, the Kd came out at 6 µM in experiment [3], 3.1 ± 0.7 µM in the experiment with CypA R55A mutant and 3 ± 0.6 µM in experiment [4].
Molecule B9 showed a Kd in experiment [1] of more than 1000 µM.
As to B10, the Kd in experiment [1] came out at 27.2 ± 5.8 µM; in experiment [2], 43 ± 6.8 µM.

For the origin of these results see PMC5430804, “Structural and biochemical insights of CypA and AIF interaction” (Scientific Reports, 2017).
